Article PMC13038412, “Hetero-oligomerization drives structural plasticity of eukaryotic peroxiredoxins” (Nature Chemical Biology, 2026)

Assays:
[1] = molecular target: roGFP2-AtBAS1B (A. thaliana); assay: native gel or EMSA; clear native PAGE of lysates from Δtsa1Δtsa2 yeast coexpressing a roGFP2-peroxiredoxin fusion with an empty vector or an unfused peroxiredoxin; imaged for GFP fluorescence
[2] = molecular target: T1, His6-Tsa2-EPEA (S. cerevisiae); assay: negative-stain EM; 0.02 mg/ml purified sample in 10 mM HEPES/NaOH pH 8, 137 mM NaCl, 2 mM KCl; 2% uranyl acetate; hetero-oligomer: the 0.88 mol/mol fraction
T1 sequence (Q04120 1-196, looked up): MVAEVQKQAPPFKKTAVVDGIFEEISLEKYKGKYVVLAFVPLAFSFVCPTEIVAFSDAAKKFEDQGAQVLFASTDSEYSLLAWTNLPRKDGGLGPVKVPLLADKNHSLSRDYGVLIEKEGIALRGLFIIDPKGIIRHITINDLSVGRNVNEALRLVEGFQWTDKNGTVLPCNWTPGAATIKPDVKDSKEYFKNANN

[3] = molecular target: T1, His6-Tsa2-EPEA (S. cerevisiae); assay: MALDI-TOF MS of disulfide-linked dimers; purified homo-oligomers and three tandem-purified hetero-oligomer fractions in 0.1% TFA, DHAP matrix, linear positive mode; dimers reducible with DTT
[4] = molecular target: roGFP2-LiPrx1 (L. infantum); assay: native gel or EMSA; clear native PAGE of lysates from Δtsa1Δtsa2 yeast coexpressing a roGFP2-peroxiredoxin fusion with an empty vector or an unfused peroxiredoxin; imaged for GFP fluorescence
His6-Tsa2 = molecular target: T2, His6-Tsa2 (S. cerevisiae, UniProt Q04120 1-196); assay: pull-down; both genes coexpressed from one pCOLADuet plasmid in E. coli; tandem-affinity purification Ni-NTA then StrepTactin, or vice versa; eluates on reducing SDS-PAGE, western blot (semiquantitative, calibrated with individually purified proteins); conditions: partners not purified
T2 construct: Tsa2, Prx1/AhpC-type peroxiredoxin of Saccharomyces cerevisiae; TSA2 from pET15b/His6-TSA2; calculated mass of His6-Tsa2 23.8 kDa; also called His6-tagged Tsa2; His-Tsa2; source: E. coli SHuffle T7 Express, purified (Ni-NTA) from pET15b; or coexpressed with Strep-Tsa1 / Strep-Tsa1ΔCR from pCOLADuet and tandem purified (Ni-NTA, StrepTactin); not shown: His6, N-terminal, kept
T2 sequence (looked up): T1 sequence (Q04120 1-196, looked up)

[5] = molecular target: the molecule itself; assay: negative-stain EM; 0.02 mg/ml purified sample in 10 mM HEPES/NaOH pH 8, 137 mM NaCl, 2 mM KCl; 2% uranyl acetate; hetero-oligomer: the 0.88 mol/mol fraction
[6] = molecular target: the molecule itself; assay: MALDI-TOF MS of disulfide-linked dimers; purified homo-oligomers and three tandem-purified hetero-oligomer fractions in 0.1% TFA, DHAP matrix, linear positive mode; dimers reducible with DTT
[7] = molecular target: the molecule itself; assay: native gel or EMSA; clear native PAGE (3-12%) of yeast lysates, imaged for GFP fluorescence; roGFP2 fusions expressed from the genomic loci; cells untreated or treated with 1 mM H2O2 for the indicated times; lysis with 20 mM NEM
[8] = molecular target: the molecule itself; assay: native gel or EMSA; clear native PAGE of lysates from Δtsa1Δtsa2 yeast coexpressing a roGFP2-peroxiredoxin fusion with an empty vector or an unfused peroxiredoxin; imaged for GFP fluorescence
[9] = molecular target: the molecule itself; assay: mass photometry; 5 µM purified samples incubated 15 min at 20, 30, 40 or 45 °C, diluted 25x into 10 mM HEPES/NaOH pH 8, 137 mM NaCl, 2 mM KCl; Refeyn OneMP; disulfide-linked oxidation form

In the case of roGFP2-AtBAS1B (enzyme), the stoichiometry N [1] is reported as 10.

Work on His6-Tsa2-EPEA (enzyme) yielded a stoichiometry N [2] of 10 and a stoichiometry N [3] of 2.

With roGFP2-LiPrx1 (enzyme) the stoichiometry N [4] was 10.

B1: Strep-Tsa1 (enzyme, S. cerevisiae, UniProt P34760 1-196, looked up)
chain: MVAQVQKQAPTFKKTAVVDGVFDEVSLDKYKGKYVVLAFIPLAFTFVCPTEIIAFSEAAKKFEEQGAQVLFASTDSEYSLLAWTNIPRKEGGLGPINIPLLADTNHSLSRDYGVLIEEEGVALRGLFIIDPKGVIRHITINDLPVGRNVDEALRLVEAFQWTDKNGTVLPCNWTPGAATIKPTVEDSKEYFEAANK
notes: Tsa1, Prx1/AhpC-type peroxiredoxin of Saccharomyces cerevisiae; TSA1 subcloned from pET15b/His-TSA1; calculated mass of Strep-Tsa1 22.9 kDa; Dimer-decamer equilibrium; also called Strep-tagged Tsa1; Tsa1 homo-oligomer; source: E. coli SHuffle T7 Express, purified (StrepTactin) from pET45b; or coexpressed with His6-Tsa2 / His6-Tsa2-EPEA from pCOLADuet-1 and tandem purified (Ni-NTA, StrepTactin); …
B1 was tested, and the “stoichiometry N” value (His6-Tsa2) was roughly 1 Strep-Tsa1 per His6-Tsa2, the “stoichiometry N” value [5] was 10 and the “stoichiometry N” value [6] was 2.

B2: roGFP2-Tsa1 (enzyme, S. cerevisiae, UniProt P34760 1-196, looked up)
chain: B1 chain
notes: Tsa1 of Saccharomyces cerevisiae, roGFP2-tagged version replacing TSA1 at its endogenous locus; source: S. cerevisiae, gene integrated at the TSA1 genomic locus under the native promoter, in lysate
With B2 the “stoichiometry N” value [7] was 2.

B3: roGFP2-AtBAS1A (enzyme, A. thaliana, UniProt Q96291 66-266, looked up)
chain: KAQADDLPLVGNKAPDFEAEAVFDQEFIKVKLSDYIGKKYVILFFYPLDFTFVCPTEITAFSDRHSEFEKLNTEVLGVSVDSVFSHLAWVQTDRKSGGLGDLNYPLISDVTKSISKSFGVLIHDQGIALRGLFIIDKEGVIQHSTINNLGIGRSVDETMRTLQALQYIQENPDEVCPAGWKPGEKSMKPDPKLSKEYFSAI
notes: AtBAS1A, Prx1/AhpC-type peroxiredoxin of the chloroplast stroma of Arabidopsis thaliana; source: Δtsa1Δtsa2 yeast, expressed from a plasmid, in lysate
For B3, the “stoichiometry N” value [8] was 2.

B4: His6-GFP-TEV-Tsa2 (enzyme, S. cerevisiae, UniProt Q04120 1-196, looked up)
chain: T1 sequence (Q04120 1-196, looked up)
notes: Tsa2 of Saccharomyces cerevisiae, behind His6, GFP and a TEV site; Probably made in E. coli (AhpC contamination was detected); also called Tsa2 with an N-terminal GFP tag; not shown: His6, N-terminal, kept; GFP, N-terminal, kept
B4: binds [9].
